Patent US20190256846A1 (AGENCY FOR SCIENCE TECHNOLOGY AND RESEARCH, published 2019)

Columns and labels:
[1] = biological target: ErbB4 on MCF-7 cells (endogenous) (UniProt Q15303); experiment: cell-based or functional assay
[2] = biological target: T1, ErbB4 mutant lacking the C-terminal PDZ binding motif (ErbB4 APBM) (UniProt Q15303 26-1308, limits assumed); experiment: GST pull-down from lysates of overexpressing cells, Western blot with anti-ErbB4
T1 construct: The mutation is a triple alanine substitution of the last three residues, not a deletion; Present in HEK293 cell lysate; also called mutant with a disrupted PBM
Procedure: ErbB4 and mutant was transfected into HEK293 cells using JetPrimePolyPlus transfection kit (PolyPlus Transfections) according to manufacturer's instructions. […] GST and GST ZO-1PDZ1-3 domain fusion proteins were generated, purified, and bound to Glutathione Sepharose-4B (GE Healthcare Life Sciences) using standard protocols. Bound proteins were quantified by SDS-PAGE by using known amounts of BSA as standards. 18 μl of GST beads were incubated with 1 μg of GST fusion proteins. Unbound proteins were removed by washing with ice cold PBS. 300 μg of the transfected cells were then added and incubated at 4° C. for 2 hr followed by washing 4 times with ice cold lysis buffer. The bound fractions were eluted with 4×SDS-PAGE sample buffer, separated by SDS PAGE, immunoblotted onto PVDF membranes and probed with Rabbit anti-ErbB4 antibodies.

Sequence of ErbB4 on MCF-7 cells (endogenous) (Q15303 26-1308 limits assumed): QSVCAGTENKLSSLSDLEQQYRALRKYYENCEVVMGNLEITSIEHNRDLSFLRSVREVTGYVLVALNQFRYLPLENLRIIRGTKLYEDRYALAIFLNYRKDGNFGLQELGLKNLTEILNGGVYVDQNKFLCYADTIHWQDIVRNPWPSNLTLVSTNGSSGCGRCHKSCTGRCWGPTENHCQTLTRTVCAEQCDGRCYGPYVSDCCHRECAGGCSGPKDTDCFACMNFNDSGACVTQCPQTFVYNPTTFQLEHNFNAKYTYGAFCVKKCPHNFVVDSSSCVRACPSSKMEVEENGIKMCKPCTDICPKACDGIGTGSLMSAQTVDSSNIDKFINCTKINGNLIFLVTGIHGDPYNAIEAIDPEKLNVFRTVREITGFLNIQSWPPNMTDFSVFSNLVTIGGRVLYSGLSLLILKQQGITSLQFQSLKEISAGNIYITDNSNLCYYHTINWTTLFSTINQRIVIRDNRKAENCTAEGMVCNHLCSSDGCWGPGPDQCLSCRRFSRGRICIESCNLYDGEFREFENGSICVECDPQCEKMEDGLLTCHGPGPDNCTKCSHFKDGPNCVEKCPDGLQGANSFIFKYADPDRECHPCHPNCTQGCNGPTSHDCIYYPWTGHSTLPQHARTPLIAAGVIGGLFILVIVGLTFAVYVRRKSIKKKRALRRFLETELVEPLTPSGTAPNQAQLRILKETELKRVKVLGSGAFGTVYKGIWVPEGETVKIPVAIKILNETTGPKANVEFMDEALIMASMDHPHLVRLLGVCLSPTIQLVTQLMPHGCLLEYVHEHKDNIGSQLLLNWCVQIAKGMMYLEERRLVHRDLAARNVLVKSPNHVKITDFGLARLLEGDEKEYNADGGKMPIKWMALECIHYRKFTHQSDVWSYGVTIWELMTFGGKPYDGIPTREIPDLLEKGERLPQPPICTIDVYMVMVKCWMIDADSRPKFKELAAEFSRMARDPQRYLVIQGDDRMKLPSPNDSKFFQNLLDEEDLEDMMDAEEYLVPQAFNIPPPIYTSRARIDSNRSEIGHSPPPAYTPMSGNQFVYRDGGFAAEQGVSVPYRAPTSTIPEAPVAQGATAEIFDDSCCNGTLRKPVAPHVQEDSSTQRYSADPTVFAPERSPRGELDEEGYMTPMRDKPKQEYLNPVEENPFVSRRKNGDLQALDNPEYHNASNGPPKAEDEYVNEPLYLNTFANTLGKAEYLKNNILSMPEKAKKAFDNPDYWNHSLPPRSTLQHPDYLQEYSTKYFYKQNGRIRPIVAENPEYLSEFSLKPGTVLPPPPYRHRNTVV
T1 sequence (Q15303 other isoform, or with tags, fused parts or gaps mutant limits assumed): as the sequence (Q15303 26-1308 limits assumed) above, with T1281A, V1282A, V1283A counted along it

Erk activation (Erk phosphorylation, Western blot) in Tjp1 shRNA MCF-7 cells, 15 min stimulation [1] [ng/mL] | Erk activation (Erk phosphorylation, Western blot) in control shRNA MCF-7 cells, 15 min stimulation [1] [ng/mL] | binding result [2] | Molecule
2.5 | 50 to 100 |  | human NRG-1 (Cell Signalling Technology, Cat. #5218) (from UniProt Q02297 177-241) (ligand)
 |  | no binding | GST fusion protein carrying the three PDZ domains of Tjp1 (GST-Tjp1 PDZ1-3) (other, human, UniProt Q07157 1-503, looked up, domain: PDZ 1-3 domains; also called GST ZO-1PDZ1-3 domain fusion protein; ZO-1 (Tjp1) PDZ domains; not shown: glutathione S-transferase (GST) tag encoded by the pGEX 4T-1 vector) MSARAAAAKSTAMEETAIWEQHTVTLHRAPGFGFGIAISGGRDNPHFQSGETSIVISDVLKGGPAEGQLQENDRVAMVNGVSMDNVEHAFAVQQLRKSGKNAKITIRRKKKVQIPVSRPDPEPVSDNEEDSYDEEIHDPRSGRSGVVNRRSEKIWPRDRSASRERSLSPRSDRRSVASSQPAKPTKVTLVKSRKNEEYGLRLASHIFVKEISQDSLAARDGNIQEGDVVLKINGTVTENMSLTDAKTLIERSKGKLKMVVQRDERATLLNVPDLSDSIHSANASERDDISEIQSLASDHSGRSHDRPPRRSRSRSPDQRSEPSDHSRHSPQQPSNGSLRSRDEERISKPGAVSTPVKHADDHTPKTVEEVTVERNEKQTPSLPEPKPVYAQVGQPDVDLPVSPSDGVLPNSTHEDGILRPSMKLVKFRKGDSVGLRLAGGNDVGIFVAGVLEDSPAAKEGLEEGDQILRVNNVDFTNIIREEAVLFLLDLPKGEEVTILAQKK
